The results in this text go back to PMC4672631.

Read-outs that look alike come from different tables or passages of the source.

Experiment [1] addresses cytochrome f (PetA) with a C-terminal six-histidine tag, F. diplosiphon SF33 (Fremyella diplosiphon SF33). Put plainly: co-purification.
For experiment [2] the target is unchanged. The experiment can be described thus: co-purification. The source holds these as a separate data set.
The target of experiment [3] is cytochrome b6f complex of spinach (monomeric unit) (spinach) (UniProt P16013). The experiment can be described thus: native gel or EMSA.

In the case of “subunit IV (PetD), F. diplosiphon SF33 (natural protein)”, the stoichiometry N (relative to cyt f) in experiment [1] was 0.45; in experiment [2] it was 0.29. As for “cytochrome b6 (PetB), F. diplosiphon SF33 (natural protein)”, the stoichiometry N (relative to cyt f) in experiment [1] was 1.09; in experiment [2], 0.69. Regarding “cytochrome b6f complex of spinach (monomeric unit) (from UniProt P16013 36-320; P00165 1-215; P08980 52-230; P00166 1-160)”, the stoichiometry N in experiment [3] was found to be 2. On to “iron-sulfur protein (ISP), full length, F. diplosiphon SF33 (natural protein)”, for which the stoichiometry N (relative to cyt f) in experiment [1] stood at 0.17; in experiment [2] it was 0.21.
